Results on two molecules are retold here after US20210032351A1 (XDCEXPLORER SHANGHAI, published 2021).

One test concerns the target T1, pep29 (cysteine pairing not given here).
T1 peptide: EDGVRKCKKCEGPCRKK(Biotin)
The test is described as follows: peptide dot matrix ELISA.

Another test concerns the target T2, pep24 (cysteine pairing not given here).
T2 peptide: SYEMEEDGVRKCKKCEK(Biotin)
The test is described as follows: peptide dot matrix ELISA.

The next test has as its target T3, pep02.
T3 peptide: EEKKGNYVVTDHGSCVK(Biotin)
Description: peptide dot matrix ELISA.

In another test the target is T4, pep32 (cysteine pairing not given here).
T4 peptide: VRKCKKCEGPCRKVCNK(Biotin)
The test is described as follows: peptide dot matrix ELISA. (In general: An ELISA detects its analyte on a solid surface through an enzyme-linked reagent.)

A further test concerns the target T5, pep23 (cysteine pairing not given here).
T5 peptide: DSYEMEEDGVRKCKKCK(Biotin)
Description: peptide dot matrix ELISA.

In a further test the target is T6, pep01.
T6 peptide: LEEKKGNYVVTDHGSCK(Biotin)
The test is described as follows: peptide dot matrix ELISA.

The target in a further test is T7, pep34 (cysteine pairing not given here).
T7 peptide: KCKKCEGPCRKVCNGIK(Biotin)
The test is described as follows: peptide dot matrix ELISA.

In another test the target is T8, pep19.
T8 peptide: ACGADSYEMEEDGVRKK(Biotin)
The test is described as follows: peptide dot matrix ELISA.

A further test has as its target T9, pep25 (cysteine pairing not given here).
T9 peptide: YEMEEDGVRKCKKCEGK(Biotin)
Description: peptide dot matrix ELISA.

Another test addresses T10, pep17.
T10 peptide: VRACGADSYEMEEDGVK(Biotin)
Description: peptide dot matrix ELISA.

The next test addresses T11, pep08 (cysteine pairing not given here).
T11 peptide: YVVTDHGSCVRACGADK(Biotin)
Description: peptide dot matrix ELISA.

For the next test, the target named is T12, pep03.
T12 peptide: EKKGNYVVTDHGSCVRK(Biotin)
The test is described as follows: peptide dot matrix ELISA.

In the next test the target is T13, pep22.
T13 peptide: ADSYEMEEDGVRKCKKK(Biotin)
The test is described as follows: peptide dot matrix ELISA.

In another test the target is T14, pep30 (cysteine pairing not given here).
T14 peptide: DGVRKCKKCEGPCRKVK(Biotin)
Description: peptide dot matrix ELISA.

The next test deals with T15, pep12 (cysteine pairing not given here).
T15 peptide: DHGSCVRACGADSYEMK(Biotin)
Description: peptide dot matrix ELISA.

Another test addresses T16, pep09 (cysteine pairing not given here).
T16 peptide: VVTDHGSCVRACGADSK(Biotin)
Description: peptide dot matrix ELISA.

The next test concerns the target T17, pep11 (cysteine pairing not given here).
T17 peptide: TDHGSCVRACGADSYEK(Biotin)
The test is described as follows: peptide dot matrix ELISA.

For a further test, the target named is T18, pep31 (cysteine pairing not given here).
T18 peptide: GVRKCKKCEGPCRKVCK(Biotin)
Description: peptide dot matrix ELISA.

For the next test, the target named is T19, pep10 (cysteine pairing not given here).
T19 peptide: VTDHGSCVRACGADSYK(Biotin)
The test is described as follows: peptide dot matrix ELISA.

Test [1] has as its target T20, human EGFRvIII protein on the cell surface (human, UniProt P00533 25-1210).
T20 construct: whole, on cells; the cell line is named under assay; also called hEGFRvIII; U87MG-hEGFRvIII
The test is described as follows: FACS on CHOk1-EGFRvIII cells. Here is the method:
(§1) The desired cells are subjected to an expanded culture to 90% confluence in a T-75 cell culture flask; the medium is sucked out, and the cells are washed twice with a HBSS buffer (Hanks Balanced Salt Solution) (purchased from Invitrogen), and then treated with an enzyme-free cell dissociation solution (Versene solution: purchased from Life Technology) and collected. The cells are washed twice with the HBSS buffer and are counted, and then the cells are diluted with the HBSS buffer to 2×10⁶ cells/ml, added with 1% goat serum blocking solution, with the percentage being the mass percentage, and incubated on ice for 30 minutes, and then centrifugally washed twice with the HBSS buffer. The collected cells are suspended to 2×10⁶ cells/mL with an FACS buffer (HBSS+1% BSA, with the percentage being the mass percentage), added to a 96-well FACS reaction plate at 100 μL/well, then added with 100 μL/well of the purified EGFRvIII antibody (samples to be tested) obtained in example 2, and incubated on ice for 2 hours. The plate is centrifugally washed twice with the FACS buffer, added with 100 μL/well of a fluorescence (Alexa 488) labeled secondary antibody (purchased from Invitrogen), and then incubated on ice for 1 hour. The plate is centrifugally washed 3 times with the FACS buffer, added with 100 μL/well of a fixing solution [4% (v/v) paraformaldehyde] for suspending the cells, and centrifugally washed twice with the FACS buffer after 10 minutes. The cells are suspended in 100 μL of the FACS buffer, and the results are detected and analyzed by FACS (FACS Calibur, purchased from BD). Data analysis is performed by using the software (CellQuest) to obtain the mean fluorescence intensity (MFI) of the cells. Data is further analyzed by using the software (GraphPad Prism5) to perform data fitting and calculate EC50. […] A431 cells (human epidermal cell cancer cell lines) have a large amount of wild-type EGFR protein expressed on the surface thereof.

The target of test [2] is T21, human EGFRvIII-hFc protein (human, UniProt P00533 25-645).
T21 construct: extracellular domain; also called immunogen A; hFc-tagged EGFRvIII protein; not shown: human IgG Fc fragment (hFc) of the pCpC vector
The test is described as follows: ELISA, EGFRvIII-hFc coated. Here is the method:
The purified immunogen A (EGFRvIII-hFc) obtained in example 1 (for the preparation method, see step (I) in example 1) is diluted with PBS to a final concentration of 1.0 μg/mL, and then added to a 96-well ELISA plate at 100 μl/well. The plate is sealed with a plastic film and incubated at 4° C. overnight. The next day, the plate is washed twice with a plate washing solution [PBS+0.01% (v/v) Tween20], and added with a blocking solution [PBS+0.01% (v/v) Tween20+1% (w/w) BSA] for blocking 2 hours at room temperature. […] The plate is incubated for 2 hours at 37° C., and then washed 3 times with the plate washing solution [PBS+0.01% (v/v) Tween20]. The plate is added with an HRP (horseradish peroxidase) labeled secondary antibody (purchased from Sigma), incubated at 37° C. for 2 hours, and then washed 3 times with the plate washing solution [PBS+0.01% (v/v) Tween20]. The plate is added with 100 μl of TMB substrate/well, incubated for 30 minutes at room temperature, and then added with 100 μl of stopping solution (1.0N HCl)/well. A450 nm value is read using an ELISA plate reader (SpectraMax 384plus, purchased from Molecular Device), and the results are shown in FIG. 11 and table 19.

In test [3] the target is T22, human wild-type EGFR protein on the cell surface (human, UniProt P00533 25-1210).
T22 construct: whole, on cells; Endogenous on A431, HEB, U87MG cells and normal human primary hepatocytes; transfected on CHOk1-EGFR cells; The cell is named under assay; also called A431; HEB
The test is described as follows: FACS on CHOk1-EGFR cells. As to the method:
as §1, with “The” for “The desired cells are subjected to an expanded culture to 90% confluence in a T-75 cell culture flask; the medium is sucked out, and the cells are washed twice with a HBSS buffer (Hanks Balanced Salt Solution) (purchased from Invitrogen), and then treated with an enzyme-free cell dissociation solution (Versene solution: purchased from Life Technology) and collected. The”, “thereof. […] U87MG cells (human glioma cell lines) have a small amount of wild-type EGFR protein expressed on the surface thereof, while HEB cells (human glioma cell lines) have a high level of wild-type EGFR protein expression on the surface thereof.” for “thereof.”

Test [4] deals with T21, human EGFRvIII-hFc protein. Description: ELISA, EGFRvIII-hFc coated; weak binding, maximum OD450 0.79 against 3.03 for wild type and 0.08 for hIgG. As to the method:
The plate is incubated for 2 hours at 37° C., and then washed 3 times with the plate washing solution [PBS+0.01% (v/v) Tween20]. The plate is added with an HRP (horseradish peroxidase) labeled secondary antibody (purchased from Sigma), incubated at 37° C. for 2 hours, and then washed 3 times with the plate washing solution [PBS+0.01% (v/v) Tween20]. The plate is added with 100 μl of TMB substrate/well, incubated for 30 minutes at room temperature, and then added with 100 μl of stopping solution (1.0N HCl)/well. A450 nm value is read using an ELISA plate reader (SpectraMax 384plus, purchased from Molecular Device), and the results are shown in FIG. 11 and table 19.

Ends that are not written are not given here. * marks the point of attachment. Biotin = O=C1N[C@H]2[C@H](CS[C@H]2CCCCC(=O)*)N1

B1: Chimeric antibody 64F1 (antibody, V domains shown)
VH: QVQLQQSGAELARPGASVKMSCKASGYTFSSYTMHWAKQRPGQGLEWIGYINPSSGYTKYNQKFKDKATLTADKSSSTAYMQLSSLTSEDSIVYYCARGGGRGFAYWGQGTLVTVSA
VL: QIVLTQSPAIMSASPGERVTMTCSASSSVSYMYWYQQKPGSSPRLLIYDTSNLASGVPVRFSGSGSGTSYSLTISRVEAEDAATYYCQQWSSYSLTFGAGTKLELK
notes: also called 64F1F8 chimeric
In the case of B1, the ELISA signal with pep29 turned out to be 0.06; in the test with pep24, 0.06; with pep02, 0.05; in the test with pep32, 0.06; in the test with pep23, 0.07; with pep01 it was 0.05. Besides, the ELISA signal with pep34 turned out to be 0.07; with pep19, 0.05; in the test with pep25 it was 0.06; with pep17 it was 0.05; with pep08, 0.05; with pep03, 0.05. The ELISA signal came out at 0.08 in the test with pep22; 0.06 with pep30; 0.05 with pep12; 0.05 with pep09; 0.05 with pep11; 0.06 with pep31. Also, in the test with pep10, the ELISA signal was determined as 0.05.

B2: c75G7C6-4 (antibody, human IgG1, V domains shown)
VH: EVQLQQSGPELVKPGASVKIPCKASGYTFTDYNMDWVKQSHGKSLEWIGDINPNNGDTIYNQKFKGKATLTVDKSSSTAYMELRSLTSEDTAVYYCARGDYSGYYPVYYAMDYWGQGTSVTVSS
VL: ENVLTQSPAIMSASPGEKVTMTCRASSSVSSSYLHWYQQKSGASPKLWIFSTSNLAAGVPARFSGSGSGTSYSLTVSSVEAEDAATYYCQQYSGYPLTFGAGTKLELK
notes: Chimeric 75G7C6 with DG of heavy chain CDR3 mutated to SG; Human IgG1/kappa; also called mutant chimeric antibody DG/SG
With B2, the 50% effective concentration (EC50) (in general, the concentration needed to bring the measured effect to its halfway point) in test [1] amounted to 24 nM; in test [4], 7.94 nM. In addition, the “Maximum mean fluorescence intensity” value in test [1] came to 52600 MFI; in [3], 8970 MFI. In test [2], the “Maximum OD450 value” amounted to 0.79 OD450.
